Assay [1] addresses T1, CD40 on HT1080-CD40 cells (Homo sapiens, UniProt P25942).
T1 construct: CD40 expressed on HT1080-CD40 transfectants; also called CD40-expressing cells
The assay is described as follows: cellular competition binding with a GpL-TNFL fusion protein; HT1080 transfectants (2 x 10^4 per well) incubated with an excess of the GpL-free antibody (10 µg/ml) or VHH Fc fusion protein for 30 minutes, then GpL-TNFL added at a concentration close to its KD (typically 1 - 100 ng/ml); remaining specific binding against TNFR negative HT1080 cells. The conditions noted are these: partners not purified.

The next assay deals with T2, TNFR2(ed)-CRD1-4-GpL (Homo sapiens, point mutant).
T2 construct: TNFR2, CRD1-CRD4 of the ectodomain (stalk region lacking); also called GpL-tagged deletion mutant of the TNFR2 ectodomain lacking the stalk region; source: HEK293T, transient transfection (PEI); not shown: GpL (Gaussia princeps luciferase), C-terminal, kept
T2 chain: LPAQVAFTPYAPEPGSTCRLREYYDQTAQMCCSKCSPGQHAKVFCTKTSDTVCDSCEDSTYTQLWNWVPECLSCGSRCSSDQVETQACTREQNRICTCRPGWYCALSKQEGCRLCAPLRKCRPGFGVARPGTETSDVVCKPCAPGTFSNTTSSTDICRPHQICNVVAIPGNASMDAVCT
The assay can be described thus: cell-free binding of GpL-tagged receptor fragments to plate-captured antibody; plates coated with 1 µg/ml protein G, antibody (1 µg/ml) captured 1 h at 37°C, 500 ng/ml TNFR2-GpL fusion proteins added in medium for 2 h at 37°C, well-associated luminescence; irrelevant IgG1 wells subtracted. The conditions noted are these: partners not purified.

In another assay the target is T3, TNFR2(ed)-CRD1-3-GpL (Homo sapiens, point mutant).
T3 construct: TNFR2, CRD1-CRD3 of the ectodomain; also called GpL-tagged deletion mutant of the TNFR2 ectodomain lacking the stalk region + CRD4; source: HEK293T, transient transfection (PEI); not shown: GpL (Gaussia princeps luciferase), C-terminal, kept
T3 chain: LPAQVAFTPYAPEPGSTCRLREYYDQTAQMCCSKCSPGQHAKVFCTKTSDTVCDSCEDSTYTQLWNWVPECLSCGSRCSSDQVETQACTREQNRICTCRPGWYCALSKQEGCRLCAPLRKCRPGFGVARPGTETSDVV
The description is as above. The settings on record: partners not purified.

The target in the next assay is T4, TNFR2(ed)-CRD1-2-GpL (Homo sapiens, point mutant).
T4 construct: TNFR2, CRD1-CRD2 of the ectodomain; also called GpL-tagged deletion mutant of the TNFR2 ectodomain lacking the stalk region + CRDs 3 and 4; source: HEK293T, transient transfection (PEI); not shown: GpL (Gaussia princeps luciferase), C-terminal, kept
T4 chain: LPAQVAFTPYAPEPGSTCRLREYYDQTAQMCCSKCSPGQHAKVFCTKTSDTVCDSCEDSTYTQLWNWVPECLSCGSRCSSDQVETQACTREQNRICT
The assay is described as above. The conditions noted are these: partners not purified.

In a further assay the target is T5, TNFR2(ed)-CRD1-GpL (Homo sapiens, point mutant).
T5 construct: TNFR2, CRD1 of the ectodomain; also called GpL fusion protein of the TNFR2 CRD1 alone; source: HEK293T, transient transfection (PEI); not shown: GpL (Gaussia princeps luciferase), C-terminal, kept
T5 chain: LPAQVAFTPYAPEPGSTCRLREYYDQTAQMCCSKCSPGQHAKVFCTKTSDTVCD
The description is as above. The settings on record: partners not purified.

Assay [2] concerns the target T1, CD40 on HT1080-CD40 cells. The assay can be described thus: cellular equilibrium binding of a GpL (luciferase) fusion protein; adherent HT1080-CD40 cells in 96-well plates (2 x 10^4 cells/well), two-fold dilution series of the GpL antibody fusion protein, 37°C, 30 min to 1 h, five washes with icecold PBS, cell-associated luminescence; non-specific binding from HT1080 cells, from cells blocked with an excess of the GpL-free antibody, or from an irrelevant IgG1-LC:GpL; one …. The conditions noted are these: partners not purified.

Another assay addresses T6, CD40(ed)-Fc (Homo sapiens, UniProt P25942).
T6 construct: extracellular domain of CD40; coated directly on the plate; the legend's footnote says that purified TNFR(ed)-Fc can be coated directly, so it was probably purified; also called Fc fusion protein of the extracellular CD40 domain; source: HEK293T, transient transfection (said of the recombinant proteins in general)
The assay can be described thus: cell-free equilibrium binding of a GpL (luciferase) fusion protein on coated plates; black high binding 96-well plates coated with 1 µg/ml CD40(ed)-Fc in 0,1 M carbonate buffer at 4°C overnight, blocked with 10% FCS in PBS, two-fold dilution series of the GpL antibody fusion protein, 37°C, 1 h; non-specific binding from irrTNFR(ed)-Fc wells, from wells blocked with an excess of the GpL-free antibody, or from an …. The conditions noted are these: one partner purified.

T1 sequence (P25942 21-277): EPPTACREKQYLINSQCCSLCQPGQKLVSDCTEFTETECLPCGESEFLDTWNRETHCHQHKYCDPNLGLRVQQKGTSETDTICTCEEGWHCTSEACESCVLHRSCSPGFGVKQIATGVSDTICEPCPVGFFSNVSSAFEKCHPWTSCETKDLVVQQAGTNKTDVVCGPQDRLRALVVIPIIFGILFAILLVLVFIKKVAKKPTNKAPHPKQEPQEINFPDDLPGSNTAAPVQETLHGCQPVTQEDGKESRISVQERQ
T6 sequence (P25942 21-193): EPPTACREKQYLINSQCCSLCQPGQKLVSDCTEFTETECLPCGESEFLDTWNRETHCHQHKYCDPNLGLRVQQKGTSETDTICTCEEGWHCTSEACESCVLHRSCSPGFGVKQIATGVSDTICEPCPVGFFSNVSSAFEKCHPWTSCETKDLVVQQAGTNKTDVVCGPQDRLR

B1: Anti-CD40(ADC)-IgG1 (antibody, V domains shown)
VH: EVQLLESGGGLVQPGGSLRLSCAASGFTFSTYGMHWVRQAPGKGLEWLSYISGGSSYIFYADSVRGRFTISRDNSENALYLQMNSLRAEDTAVYYCARILRGGSGMDLWGQGTLVTVSS
VL: QSVLTQPPSASGTPGQRVTISCTGSSSNIGAGYNVYWYQQLPGTAPKLLIYGNINRPSGVPDRFSGSKSGTSASLAISGLRSEDEADYYCAAWDKSISGLVFGGGTKLTVL
notes: heavy chain of recombinant anti-CD40 IgG1 clone ADC1013; light chain of recombinant anti-CD40 IgG1 clone ADC1013; IgG1; also called ADC1013; variant of the anti-CD40 antibody ADC-1013; source: HEK293T, transient transfection (PEI)
For the molecule B1, in assay [1], the binding result is reported as “binds”.

B2: anti-TNFR2(68/69)-IgG1(N297A) (antibody, V domains shown)
VH: QVTLKESGPALVKPTQTLTLTCTFSGFSLSTSGMGVGWIRQPPGKALEWLAHIWWDDDKFYNPSLKSRLTISKDTSKNQVVLTMTNMDPVDTATYYCARLTGTRYFDYWGQGTTVTVSS
VL: DVQMTQSPSSLSASVGDRVTITCKASQDINKFIAWYQQKPGKAPKLLIHYTSTLQPGIPSRFSGSGSGRDYTFTISSLQPEDIATYYCLQYGNLWTFGGGTKVEIK
notes: heavy chain of recombinant anti-TNFR2 IgG1(N297A) clone SBT-002 (68/69); light chain of recombinant anti-TNFR2 clone SBT-002 (68/69); IgG1 with N297A in the Fc; also called SBT-002; anti-TNFR2 antibody 68/69; source: HEK293T, transient transfection (PEI)
B2: the binding result is recorded as “binds” with TNFR2(ed)-CRD1-4-GpL, “binds” with TNFR2(ed)-CRD1-3-GpL, “binds” with TNFR2(ed)-CRD1-2-GpL and “no binding (tested: 500 ng/ml)” with TNFR2(ed)-CRD1-GpL.

B3: anti-CD40(G28.5)-IgG1-LC : GpL (antibody, V domains shown)
VH: DIQLQQSGPGLVKPSQSLSLTCSVTGYSITTNYNWNWIRQFPGNKLEWMGYIRYDGTSEYTPSLKNRVSITRDTSMNQFFLRLTSVTPEDTATYYCARLDYWGQGTLVTVSS
VL: DIVMTQNPLSLPVSLGDEASISCRSSQSLENSNGNTFLNWFFQKPGQSPQLLIYRVSNRFSGVPDRFSGSGSGTDFTLKISRVEAEDLGVYFCLQVTHVPYTFGGGTTLEIK
notes: heavy chain of recombinant anti-CD40 IgG1 clone G28.5; light chain of recombinant anti-CD40 IgG1 clone G28.5; IgG1; GpL domain on the C-terminus of the light chain; also called GpL-Ab-Fp of the CD40-specific antibody G28.5; source: HEK293T, transient transfection (PEI), cell culture supernatant; not shown: GpL (Gaussia princeps luciferase), C-terminal, kept
Take B3: the binding result (in assay [2]; with CD40(ed)-Fc) was “binds” in each case.

B4: anti-CD40(G28.5)-IgG1 (antibody, V domains shown)
VH: B3 VH
VL: B3 VL
notes: as the heavy chain of m1; as the light chain of m1, without the GpL domain; IgG1; also called GpL-free version of G28.5; source: HEK293T, transient transfection (PEI)
Consider B4, for which the binding result (in assay [2]; in the assay with CD40(ed)-Fc) was “binds” each time.

(Values after article PMC10083269, “Basic characterization of antibodies targeting receptors of the tumor necrosis factor receptor superfamily” (Frontiers in Immunology, 2023).)
